T1: pig CD47 (pig, UniProt Q9GKE8 19-303)
T1 construct: whole, on cells; also called CD47 on pig red blood cells
T1 sequence (looked up): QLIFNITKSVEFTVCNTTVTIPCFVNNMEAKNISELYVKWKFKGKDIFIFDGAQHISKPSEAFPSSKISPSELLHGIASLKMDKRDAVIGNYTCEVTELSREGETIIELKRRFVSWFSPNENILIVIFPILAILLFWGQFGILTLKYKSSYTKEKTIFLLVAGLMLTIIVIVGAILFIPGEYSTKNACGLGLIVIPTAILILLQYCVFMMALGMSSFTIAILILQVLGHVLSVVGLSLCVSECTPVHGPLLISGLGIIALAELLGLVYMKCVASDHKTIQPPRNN

T2: mouse CD47 (mouse, UniProt Q61735 19-303)
T2 construct: whole, on cells; also called CD47 on mouse red blood cells
T2 sequence (looked up): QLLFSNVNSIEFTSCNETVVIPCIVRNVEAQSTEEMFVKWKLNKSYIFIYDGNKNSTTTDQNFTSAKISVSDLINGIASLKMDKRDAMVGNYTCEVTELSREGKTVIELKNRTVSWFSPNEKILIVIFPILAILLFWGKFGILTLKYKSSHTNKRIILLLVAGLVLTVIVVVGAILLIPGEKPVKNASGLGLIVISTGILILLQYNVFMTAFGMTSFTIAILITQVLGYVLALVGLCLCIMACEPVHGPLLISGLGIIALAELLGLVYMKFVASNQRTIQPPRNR

T3: rat CD47 (rat, UniProt P97829 19-303)
T3 construct: whole, on cells; also called CD47 on rat red blood cells
T3 sequence (looked up): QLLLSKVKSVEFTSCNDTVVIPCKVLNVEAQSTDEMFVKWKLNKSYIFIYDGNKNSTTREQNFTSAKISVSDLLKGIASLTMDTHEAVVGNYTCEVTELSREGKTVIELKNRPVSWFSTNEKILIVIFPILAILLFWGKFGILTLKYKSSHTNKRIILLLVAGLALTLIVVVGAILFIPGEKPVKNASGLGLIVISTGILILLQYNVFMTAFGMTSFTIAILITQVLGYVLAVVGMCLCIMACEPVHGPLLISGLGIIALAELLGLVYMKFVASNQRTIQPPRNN

B1: pVxK7b-037-hum18-LC/pVxK7b-037-hum18-HC (antibody, human IgG1, V domains shown)
VH: EVQLVQSGAEVKKPGESLRISCKGSGYTFTNYYVFWIRQSPSRGLEWLGDINPVNGDTNFNEKFKNRVTITADKSTSTAYMELSSLRSEDTAVYYCARGGYTMDYWGQG
VL: EIVLTQSPATLSVSPGERATLSCRSSQSLVHSNGNTYLHWYQQKPGQAPRLLIYKVSYRFSGVPSRFSGSGSGTDFTFTISSLEAEDAATYYCSQNTHVPRTFGQG
notes: Full-length human IgG1/kappa in CHO supernatant; Variable entries end within framework 4 (...FGQG / ...WGQG); also called Clone 18
B2: pVxK7b-037-hum22-LC/pVxK7b-037-hum22-HC (antibody, human IgG1, V domains shown)
VH: QVQLQESGPGLVKPSQTLSLTCTVSGYTFTNYYVFWVRQARGQRLEWIGDINPVNGDTNFNEKFKNRLTISKDTSKNQVVLTMTNMDPVDTATYYCARGGYTMDYWGQG
VL: B1 VL
notes: Full-length human IgG1/kappa in CHO supernatant; Variable entries end within framework 4 (...FGQG / ...WGQG); also called Clone 22
B3: pVxK7b-037-hum16-LC/pVxK7b-037-hum16-HC (antibody, human IgG1, V domains shown)
VH: QVQLQESGPGLVKPSQTLSLTCTVSGYTFTNYYVFWVRQARGQRLEWIGDINPVNGDTNFNEKFKNRVTISADKSISTAYLQWSSLKASDTAMYYCARGGYTMDYWGQG
VL: AIQLTQSPSSLSASVGDRVTITCRSSQSLVHSNGNTYLHWYQQKPGQAPRLLIYKVSYRFSGVPDRFSGSGSGTDFTLKISRVEAEDVGVYYCSQNTHVPRTFGQG
notes: Full-length human IgG1/kappa in CHO supernatant; Variable entries end within framework 4 (...FGQG / ...WGQG); also called Clone 16
B4: pVxK7b-037-hum17-LC/pVxK7b-037-hum17-HC (antibody, human IgG1, V domains shown)
VH: B1 VH with E16A, S17T, L18V, R19K, G24V, S40P, S42G, R43K, L48I
VL: B3 VL
notes: Full-length human IgG1/kappa in CHO supernatant; Variable entries end within framework 4 (...FGQG / ...WGQG); also called Clone 17
B5: pVxK7b-037-hum12-LC/pVxK7b-037-hum12-HC (antibody, human IgG1, V domains shown)
VH: QVQLQESGPGLVKPGATVKISCKVSGYTFTNYYVFWVRQARGQRLEWIGDINPVNGDTNFNEKFKNRVTITADKSTSTAYMELSSLRSEDTAVYYCARGGYTMDYWGQG
VL: DIVMTQTPLSLPVTPGEPASISCRSSQSLVHSNGNTYLHWYQQKPGKAPKLLIYKVSYRFSGVPDRFSGSGSGTDFTLKISRVEAEDVGVYYCSQNTHVPRTFGQG
notes: Full-length human IgG1/kappa in CHO supernatant; Variable entries end within framework 4 (...FGQG / ...WGQG); also called Clone 12
B6: pVxK7b-037-hum01-LC/pVxK7b-037-hum01-HC (antibody, human IgG1, V domains shown)
VH: B3 VH
VL: B5 VL
notes: Full-length human IgG1/kappa in CHO supernatant; Variable entries end within framework 4 (...FGQG / ...WGQG); also called Clone 1
B7: pVxK7b-037-hum20-LC/pVxK7b-037-hum20-HC (antibody, human IgG1, V domains shown)
VH: QITLKESGPTLVKPTQTLTLTCTFSGYTFTNYYVFWVRQAPGQGLEWMGDINPVNGDTNFNEKFKNRVTITADKSTSTAYMELSSLRSEDTAVYYCARGGYTMDYWGQG
VL: B5 VL with Q42L, K47Q, A48S, K50Q
notes: Full-length human IgG1/kappa in CHO supernatant; Variable entries end within framework 4 (...FGQG / ...WGQG); also called Clone 20
B8: pVxK7b-037-hum23-LC/pVxK7b-037-hum23-HC (antibody, human IgG1, V domains shown)
VH: B2 VH
VL: B5 VL
notes: Full-length human IgG1/kappa in CHO supernatant; Variable entries end within framework 4 (...FGQG / ...WGQG); also called Clone 23
B9: pVxK7b-037-hum08-LC/pVxK7b-037-hum08-HC (antibody, human IgG1, V domains shown)
VH: QITLKESGPTLVKPTQTLTLTCTFSGYTFTNYYVFWIRQSPSRGLEWLGDINPVNGDTNFNEKFKNRFTISRDNAKNSLYLQMNSLRAEDTAVYYCARGGYTMDYWGQG
VL: B5 VL
notes: Full-length human IgG1/kappa in CHO supernatant; Variable entries end within framework 4 (...FGQG / ...WGQG); also called Clone 8
B10: pVxK7b-037-hum11-LC/pVxK7b-037-hum11-HC (antibody, human IgG1, V domains shown)
VH: B5 VH
VL: B1 VL
notes: Full-length human IgG1/kappa in CHO supernatant; Variable entries end within framework 4 (...FGQG / ...WGQG); also called Clone 11
B11: pVxK7b-037-hum14-LC/pVxK7b-037-hum14-HC (antibody, human IgG1, V domains shown)
VH: B3 VH
VL: B5 VL with I2V, T7S, P15L, E17Q
notes: Full-length human IgG1/kappa in CHO supernatant; Variable entries end within framework 4 (...FGQG / ...WGQG); also called Clone 14
B12: pVxK7b-037-hum09-LC/pVxK7b-037-hum09-HC (antibody, human IgG1, V domains shown)
VH: B2 VH
VL: B5 VL with I2V, T7S, P15L, E17Q
notes: Full-length human IgG1/kappa in CHO supernatant; Variable entries end within framework 4 (...FGQG / ...WGQG); also called Clone 9
B13: pVxK7b-037-hum10-LC/pVxK7b-037-hum10-HC (antibody, human IgG1, V domains shown)
VH: B2 VH
VL: B5 VL with Q42L, K47Q, A48S, K50Q
notes: Full-length human IgG1/kappa in CHO supernatant; Variable entries end within framework 4 (...FGQG / ...WGQG); also called Clone 10

Positions count from the first letter of the chain named.

The first assay has as its target T1, pig CD47. Nature of the assay: flow cytometry on RBCs, antibody 10 ng/ml. As to the method: (§1) Cross species reactivity of humanized antibodies of the present invention is determined using freshly isolated red blood cells (RBCs), which display CD47 on their surface, from human, mouse, rat, and pig according to the methods disclosed in Kamel et al. (2010) Blood. Transfus. 8(4):260-266.
(§2) RBCs are incubated for 60 minutes on ice with tissue culture supernatants containing the secreted humanized antibodies at a concentration of 10 ng/ml in a solution of phosphate buffered saline, pH 7.2, 2.5 mM EDTA (PBS+E). Cells are then washed with cold PBS+E, and incubated for an additional hour on ice with FITC labeled donkey anti-human antibody (Jackson Immuno Research Labs, West Grove, Pa.; Catalogue #709-096-149) in PBS+E. Cells are then washed with PBS+E, and antibody binding is analyzed using a BD FACSAria Cell Sorter (Becton Dickinson) or a C6 Accuri Flow Cytometer (Becton Dickinson). Antibody binding is quantitated by comparison of mean fluorescence values relative to that of chimeric antibody >VxP037-01LC (SEQ ID NO:7))/>VxP037-01HC (SEQ ID NO:57). The mean fluorescence value for each antibody is divided by the mean fluorescence value for the chimeric antibody.
(A flow cytometer gives signals particle by particle.)
On to B1, for which the “mean fluorescence relative to chimeric antibody” value was 1.2 fold of chimera.

With B2, the “mean fluorescence relative to chimeric antibody” value is 1.4 fold of chimera.

For the molecule B3, the “mean fluorescence relative to chimeric antibody” value is 1.1 fold of chimera.

Regarding B4, the “mean fluorescence relative to chimeric antibody” value was 1.3 fold of chimera.

For B5, the “mean fluorescence relative to chimeric antibody” value is 1.4 fold of chimera.

As to B6, the “mean fluorescence relative to chimeric antibody” value was 1.3 fold of chimera.

Turning to B7, the “mean fluorescence relative to chimeric antibody” value was 1.7 fold of chimera.

Take B8: the “mean fluorescence relative to chimeric antibody” value is 1.7 fold of chimera.

For B9, the “mean fluorescence relative to chimeric antibody” value was 0.8 fold of chimera.

Consider B10, for which the “mean fluorescence relative to chimeric antibody” value was 1.2 fold of chimera.

B11: the “mean fluorescence relative to chimeric antibody” value was 1.4 fold of chimera.

For the molecule B12, the “mean fluorescence relative to chimeric antibody” value was 1.6 fold of chimera.

As to B13, the “mean fluorescence relative to chimeric antibody” value was 1.5 fold of chimera.

For another assay, the target named is T4, human CD47 (human, UniProt Q08722 19-323).
T4 construct: whole, on cells; also called CD47 on human red blood cells
T4 sequence (Q08722 19-323): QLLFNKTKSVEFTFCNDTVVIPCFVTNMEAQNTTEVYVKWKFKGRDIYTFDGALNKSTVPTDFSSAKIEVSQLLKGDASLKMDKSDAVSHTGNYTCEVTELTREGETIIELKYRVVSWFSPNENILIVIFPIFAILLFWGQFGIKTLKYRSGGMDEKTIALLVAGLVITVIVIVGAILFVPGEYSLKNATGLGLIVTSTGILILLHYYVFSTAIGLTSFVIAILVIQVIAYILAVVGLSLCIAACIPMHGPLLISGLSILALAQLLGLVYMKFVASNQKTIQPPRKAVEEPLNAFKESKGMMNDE
As to the kind of experiment: flow cytometry on RBCs, antibody 10 ng/ml. As for the experimental part:
as §1, §2
On to B1, for which the “mean fluorescence relative to chimeric antibody” value is 1 fold of chimera.

As to B2, the “mean fluorescence relative to chimeric antibody” value is 1.1 fold of chimera.

As for B3, the “mean fluorescence relative to chimeric antibody” value was 0.9 fold of chimera.

For the molecule B4, the “mean fluorescence relative to chimeric antibody” value was 0.8 fold of chimera.

Consider B5, for which the “mean fluorescence relative to chimeric antibody” value was 0.8 fold of chimera.

Take B6: the “mean fluorescence relative to chimeric antibody” value was 1.1 fold of chimera.

As to B7, the “mean fluorescence relative to chimeric antibody” value is 1.3 fold of chimera.

Turning to B8, the “mean fluorescence relative to chimeric antibody” value is 1.2 fold of chimera.

For the molecule B9, the “mean fluorescence relative to chimeric antibody” value was 0.7 fold of chimera.

Turning to B10, the “mean fluorescence relative to chimeric antibody” value was 0.8 fold of chimera.

Regarding B11, the “mean fluorescence relative to chimeric antibody” value is 1.1 fold of chimera.

As to B12, the “mean fluorescence relative to chimeric antibody” value was 1.2 fold of chimera.

For the molecule B13, the “mean fluorescence relative to chimeric antibody” value is 1.1 fold of chimera.

Another assay deals with T2, mouse CD47. Nature of the assay: flow cytometry on RBCs, antibody 10 ng/ml. As to the method:
as §1, §2
Regarding B1, the “mean fluorescence relative to chimeric antibody” value is 1.3 fold of chimera.

On to B2, for which the “mean fluorescence relative to chimeric antibody” value was 1.2 fold of chimera.

Take B3: the “mean fluorescence relative to chimeric antibody” value was 1 fold of chimera.

As for B4, the “mean fluorescence relative to chimeric antibody” value was 0.9 fold of chimera.

Turning to B5, the “mean fluorescence relative to chimeric antibody” value is 0.6 fold of chimera.

Turning to B6, the “mean fluorescence relative to chimeric antibody” value is 1.7 fold of chimera.

Regarding B7, the “mean fluorescence relative to chimeric antibody” value was 1.5 fold of chimera.

In the case of B8, the “mean fluorescence relative to chimeric antibody” value is 1.4 fold of chimera.

B9: the “mean fluorescence relative to chimeric antibody” value was 0.7 fold of chimera.

On to B10, for which the “mean fluorescence relative to chimeric antibody” value was 0.7 fold of chimera.

For the molecule B11, the “mean fluorescence relative to chimeric antibody” value was 1.5 fold of chimera.

With B12, the “mean fluorescence relative to chimeric antibody” value is 1.4 fold of chimera.

Turning to B13, the “mean fluorescence relative to chimeric antibody” value was 1.2 fold of chimera.

Another assay has as its target T3, rat CD47. As to the kind of experiment: flow cytometry on RBCs, antibody 10 ng/ml. As for the experimental part: as §1, §2
Consider B1, for which the “mean fluorescence relative to chimeric antibody” value is 2.2 fold of chimera.

As for B2, the “mean fluorescence relative to chimeric antibody” value is 2.8 fold of chimera.

B3: the “mean fluorescence relative to chimeric antibody” value was 2.1 fold of chimera.

Take B4: the “mean fluorescence relative to chimeric antibody” value is 2.1 fold of chimera.

As for B5, the “mean fluorescence relative to chimeric antibody” value was 1.3 fold of chimera.

In the case of B6, the “mean fluorescence relative to chimeric antibody” value is 2.7 fold of chimera.

For B7, the “mean fluorescence relative to chimeric antibody” value is 1.9 fold of chimera.

Take B8: the “mean fluorescence relative to chimeric antibody” value was 3.3 fold of chimera.

On to B9, for which the “mean fluorescence relative to chimeric antibody” value is 1.2 fold of chimera.

In the case of B10, the “mean fluorescence relative to chimeric antibody” value was 1.2 fold of chimera.

Turning to B11, the “mean fluorescence relative to chimeric antibody” value is 3.2 fold of chimera.

Regarding B12, the “mean fluorescence relative to chimeric antibody” value was 3.7 fold of chimera.

Take B13: the “mean fluorescence relative to chimeric antibody” value is 2.9 fold of chimera.

Source of the values: US20140161799A1 (ARCH ONCOLOGY, published 2014).
